Patent publication US9175313B2, “Three-dimensional structure of isoprene synthase and its use thereof for generating variants” (Danisco US Inc., priority 2009, dated 2015)
Numbering of substitutions follows the chain as printed. Numbers in names are those of the source. Entries after “also recorded” stand apart in the source; their conditions may differ.

B1: A453N: P. alba IspS variant A453N; pDW99, strain DW397, SEQ ID NO: 65 (protein)
chain: MEARRSANYEPNSWDYDYLLSSDTDESIEVYKDKAKKLEAEVRREINNEKAEFLTLLELIDNVQRLGLGYRFESDIRGALDRFVSSGGFDAVTKTSLHGTALSFRLLRQHGFEVSQEAFSGFKDQNGNFLENLKEDIKAILSLYEASFLALEGENILDEAKVFAISHLKELSEEKIGKELAEQVNHALELPLHRRTQRLEAVWSIEAYRKKEDANQVLLELAILDYNMIQSVYQRDLRETSRWWRRVGLATKLHFARDRLIESFYWAVGVAFEPQYSDCRNSVAKMFSFVTIIDDIYDVYGTLDELELFTDAVERWDVNAINDLPDYMKLCFLALYNTINEIAYDNLKDKGENILPYLTKAWADLCNAFLQEAKWLYNKSTPTFDDYFGNAWKSSSGPLQLVFAYFAVVQNIKKEEIENLQKYHDTISRPSHIFRLCNDLASASAEIARGETNNSVSCYMRTKGISEELATESVMNLIDETWKKMNKEKLGGSLFAKPFVETAINLARQSHCTYHNGDAHTSPDELTRKRVLSVITEPILPFERENLYFQGLEHHHHHH
B2: wild type IspS: P. alba MEA (+) TEV isoprene synthase, MD09-163, strain MD09-167, SEQ ID NO: 63 (protein)
chain: B1 chain with N453A
modifications: TEV site
B3: T536C: P. alba IspS variant T536C; pDW102, strain DW400, SEQ ID NO: 71 (protein)
chain: B1 chain with N453A, T536C
B4: SPC: P. alba MEA G491S L494P T536C (+) TEV; pDW112, SEQ ID NO: 91 (protein)
chain: B1 chain with N453A, G491S, L494P, T536C
modifications: TEV site
B5: SP: P. alba MEA G491S L494P (+) TEV; pDW110, SEQ ID NO: 87 (protein)
chain: B1 chain with N453A, G491S, L494P
modifications: TEV site

Assays:
[1] = DMAPP assay of site evaluation library (SEL) lysates with ELISA protein quantitation: specific activity ranked as performance index; type: biochemical; conditions: for isoprene synthase activity of variants relative to parent, in words: SEL analysis of P. alba IspS; for performance index: primary SEL screen, activity on DMAPP per unit weight relative to the parental molecule (parent = 1)
Method: 1. Prepared Patch Plates from Glycerol Stock Plates. Using a V&S 96 pin Replication Tool, cultures were patched onto a LB Agar 35 CMP/50 Kan large patch plates from overnight glycerol stock plates. Plates were incubated at 30° C. overnight for 20 to 24 hr. Cultures can be stored at 4° C. for up to a week.
2. Prepared Overnight Growth Plates. 500 mL of LB 35 CMP/50 Kan media were prepared. 300 μL/well of LB 35 CMP/50 Kan media were dispensed into deep 96 well plates (VWR). Using a V&S Replication Tool, the patch inoculum was transferred into deep 96 well plate by touching the tool pins to respective patch and using a circular motion to coat the pins with inoculum. The media was inoculated by dipping the tool then shaking the pin within the well. The overnight growth plates were sealed using a Breathe-Easier Sealing Membrane (Diversified Biotech). The plates were incubated in a Vertiga Shaking Incubator at 30° C. with shaking at 800 rpm overnight for 16 to 18 hr.
3. Prepared Day Growth Plate. Deep 96 well plates were prepared by dispensing 588 μL/well of LB 35 CMP/50 Kan media. Overnight growth plates were removed from the incubator. Overnight cultures were diluted 50-fold and 12 μL of overnight culture were transferred to day growth plates containing 588 μL/well of LB media containing antiobiotics. Overnight growth plates were sealed with new Breathe-Easier Sealing Membranes. Cultures were incubated at 30° C. and 800 rpm for 2.5 hr. Frozen 12 mM IPTG (Sigma) vials were removed from −20° C. and placed in a hood to thaw.
4. OD600 Plate Read of Overnight, Induction, and Harvest. 150 μL 1×PBS were dispensed into 96 well Costar Read Plates (#9017). 50 μL of culture samples were transferred to Read Plates. The OD600 reading was recorded using a Spectramax Plate Reader (Molecular Devices).
5. Induction. Electronic multi-channel pipettors were prepared to dispense 4×20 μL/well of IPTG (if 4× replicates). The multi-dispense option in the electronic pipettor was adjusted if more replicates was necessary. Thawed 12 mM IPTG was poured into 50 mL or 100 mL sterile reservoirs. 20 μL/well of IPTG into each 600 μL/well culture. Overnight growth plates were resealed. Cultures were incubated at 30° C. and 800 rpm for 4 hr. OD600 readings of plates were recorded according instructions above.
6. Harvest. 400 μL of induced culture were transferred to 800 μL Grenier storage plates. Plates were centrifuged at 3300 rpm for 20 min at 2° to 8° C. in a low speed benchtop centrifuge. Supernatants were discarded, pellets should stay in the conical bottom well. Residual supernatants were slapped out onto a paper towel on the benchtop. Plates were sealed with an aluminum foil membrane (Beckman-Coulter). Plates were covered with a plastic plate lid if available. Storage plates were labeled accordingly and stored frozen at −80° C.
Plates containing induced cell pellets were removed from the −80° C. freezer and allowed to thaw on the benchtop for 30 minutes prior to lysis. 200 μl of lysis buffer (50 mM Tris pH 8, 25 mM MgCl2, 74 μg/ml DNase I, 250 U/ml lysozyme, 0.1% Tween 20, 0.5 mM PMSF) was added to each pellet, and plates were incubated on an Eppendorf Thermomixer at 25° C. for 30 minutes at 1200 rpm. After lysis, plates were centrifuged at 3450 rpm for 15 minutes at 4° C. Supernatants were then removed and diluted 10-fold prior to DMAPP assay. 80 μl of the diluted supernatant was added to 20 μl of the DMAPP working stock (20 mM DMAPP in 0.1 M Phosphate Buffer pH 8.2, DMAPP triammonium salt, Cayman chemicals) in a Zinsser glass block. Blocks were then sealed with aluminum sealing membranes, and incubated in Thermomixers at 25° C. for 30 minutes at 450 rpm. Reactions were stopped by incubating blocks on Thermomixers at 70° C. for 12 minutes at 450 rpm. GC-MS was then used for headspace measurements to calculate the amount of isoprene produced by each lysates.
Headspace Assay. […]

[2] = Specific activity measurement of purified isoprene synthase variants (4 mM DMAPP, 30 C, GC-MS headspace); type: biochemical; conditions: for S.A. / Variant S.A./WT S.A.: 50 mM NaCl, 50 mM Tris pH = 8, 30° C.; for Variant S.A./WT S.A.: ratio to WT; for specific activity compared to WT isoprene synthase, in words: 30 C, purified enzyme
Method: 1. Initial Purification—Resuspend the pellet in 3 ml of fresh lysis buffer. Break cells by passing them through the French Press using the small cylinder. Centrifuge samples for 1 hour at 30,000×G and collect the supernatant. Retain pellet in order to test for presence of insoluble protein. Pre equilibrate 0.5 mL Ni Sepharose 6 Fast Flow resin (Amersham) in a 20 ml disposable column with 10 mL of Ni wash buffer. Add protein to column and shake for 60 min at 4 C to bind protein. Elute protein with 2.5 mL Ni elution buffer.
2. Buffer Exchange—Equilibrate a PD-10 column (GE Healthcare) with 25 mL of PD-10 buffer. Load protein on to column and elute with 3.5 mL of PD-10 buffer.
10 uL of purified enzyme was incubated with 4 mM DMAPP, 50 mM MgCl2 in a buffer containing 50 mM Tris and 50 mM NaCl (pH=8) to a final volume of 100 uL for 15 min. at 30 C in gas tight 2 mL vials. Reactions were terminated with the addition of 100 uL of […] EDTA, pH=8. Samples were analyzed by GC-MS to determine the concentration of isoprene in the headspace of the vials. All specific activity measurements were performed in triplicate.
(§1) Protein concentration was determined by measuring the absorbance of each protein solution at 280 nm on a Helwlett Pachard 8453 UV-Vis spectrophotometer and converting the absorbance to protein concentration using the extinction coefficient as determined on the Expasy website (Gasteiger E., Hoogland C., Gattiker A., Duvaud S., Wilkins M. R., Appel R. D., Bairoch A.; Protein Identification and Analysis Tools on the ExPASy Server; (In) John M. Walker (ed): The Proteomics Protocols Handbook, Humana Press (2005). pp. 571-607). The protein concentrations of isoprene synthase variants assayed for KM and kcat determination were verified by comparative gel electrophoresis of a dilution series of each protein (FIG. 61).

[3] = kcat, KM and Ki determination, rate vs [DMAPP], fit to uncompetitive substrate inhibition; type: biochemical; conditions: for rate profile vs [DMAPP] / Km / kcat / KM compared to WT isoprene synthase, in words: 1.25 to 20 mM DMAPP, 30 C; for Km / kcat / Ki: average of three trials ± one standard deviation; for kcat: in s^-1 (unit assumed); for Ki: uncompetitive substrate inhibition by DMAPP, read-out: KiDMAPP
Method: 10 uL of purified enzyme was incubated with DMAPP at concentrations ranging from 1.25 to 20 mM DMAPP in a buffer containing 50 mM Tris, 50 mM MgCl2 and 50 mM NaCl (pH=8) to a final volume of 100 uL for 15 min. at 30 C in gas tight 2 mL vials. Reactions were terminated with the addition of 100 uL of 250 mM EDTA, pH=8. Samples were analyzed by GC-MS to determine the concentration of isoprene in the headspace of the vials. Data were analyzed using Kaleidagraph and fit to following equation for uncompetitive substrate inhibition: rate/E=kcat*S/(KM+S*(1+S/Ki)). All kinetic assays were performed in triplicate.
as §1

[4] = Differential scanning calorimetry, thermal midpoint (Tm); type: physicochemical
Method: Excessive heat capacity curves were measured using an ultrasensitive scanning high-throughput microcalorimeter, VP-Cap DSC (MicroCal, Inc., Northampton, Mass.). The standard procedure for Differential Scanning calorimetry (DSC) measurements and the theory of the technique is previously published (Freire, E. (1995) Differential Scanning calorimetry Methods. Mol. Biol. 41, 191-218). Approximately 500 μL of 0.5 mg/ml IspS (from strain MD09-167) or variant IspS-L494P (from strain DW399) and IspS-T536F (from strain DW363) (in the absence or presence of 5 mM sodium pyrophosphate) were scanned over a 30-100° C. temperature range. The same sample was then re-scanned to check the reversibility of the process. For IspS the thermal unfolding process was irreversible. The buffer used was 50 mM HEPES, 5 mM MgCl2, pH 7.4, with and without 5 mM sodium pyrophosphate. Sodium pyrophosphate was included for its ability to function as a substrate analog. A 200° C./hr scan rate was used to minimize any artifacts that may result from aggregation. The thermal midpoint (Tm) of the DSC curves was used as an indicator of the thermal stability. The thermal melting curves and the melting points for the wild type IspS and variants are shown in FIG. 56 (buffer only) and 57 (with 5 mM sodium pyrophosphate).

Molecule	isoprene synthase activity of variants relative to parent, in words [1]	performance index [1]	S.A. [2] [nmol/mg/min]	Variant S.A./WT S.A. [2]	rate profile vs [DMAPP] [3]	Km [3] [mM]	kcat [3]	Ki [3] [mM]	thermal melting point (Tm) ([4]; buffer alone (50 mM HEPES, 5 mM MgCl2, pH 7.4)) [°C]	thermal melting point (Tm) ([4]; in the presence of 5 mM sodium pyrophosphate) [°C]	reversibility of the thermal unfolding process ([4]; re-scan of the same sample)	specific activity compared to WT isoprene synthase, in words [2]	KM compared to WT isoprene synthase, in words [3]
B1	improved activity; also recorded: high performing	2.99	170 ± 30	0.4									
B2			480 ± 20	1.0	uncompetitive substrate inhibition by DMAPP	7 ± 4	1.5 ± 0.6	16 ± 9	58.3	54.7	irreversible		
B3	improved isoprene synthase activity; also recorded: high performing	1.48	430 ± 10	0.9									
B4			630 ± 40	1.3	uncompetitive substrate inhibition by DMAPP	3.5 ± 0.8	1.5 ± 0.4	25 ± 21				increased specific activity; also recorded: greater than the WT isoprene synthase but less than the β isoprene synthase variant	less than the KM of the WT
B5			770 ± 40	1.6	uncompetitive substrate inhibition by DMAPP	4.4 ± 0.3	1.2 ± 0.1	18 ± 1				increased specific activity; also recorded: greater than the WT isoprene synthase but less than the β isoprene synthase variant	less than the KM of the WT
